Test results as given in patent US20130224224A1 (Boehringer Ingelheim, published 2013).
Like-named read-outs stand apart in the source and are kept apart here.

T1: human CX3CR1 (human, UniProt P49238 1-355)
T1 construct: overexpressed on CHO, BA/F3 or HEK293T cells; also called huCX3CR1; hCX3CR1
T1 sequence: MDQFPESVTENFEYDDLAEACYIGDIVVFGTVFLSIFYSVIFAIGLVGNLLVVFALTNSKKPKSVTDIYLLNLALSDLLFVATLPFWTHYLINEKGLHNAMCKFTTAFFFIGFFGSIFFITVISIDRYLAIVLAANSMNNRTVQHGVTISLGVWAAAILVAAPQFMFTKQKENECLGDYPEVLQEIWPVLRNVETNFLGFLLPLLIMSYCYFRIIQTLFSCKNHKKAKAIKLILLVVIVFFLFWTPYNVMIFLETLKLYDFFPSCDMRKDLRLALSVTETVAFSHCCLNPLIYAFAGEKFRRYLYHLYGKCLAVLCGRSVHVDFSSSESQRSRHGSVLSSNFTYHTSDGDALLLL

T2: cynomolgus CX3CR1 (cynomolgus, UniProt P49238 1-355 (human entry))
T2 construct: transiently expressed on HEK293T cells; also called cyCX3CR1; cyno CX3CR1
T2 chain: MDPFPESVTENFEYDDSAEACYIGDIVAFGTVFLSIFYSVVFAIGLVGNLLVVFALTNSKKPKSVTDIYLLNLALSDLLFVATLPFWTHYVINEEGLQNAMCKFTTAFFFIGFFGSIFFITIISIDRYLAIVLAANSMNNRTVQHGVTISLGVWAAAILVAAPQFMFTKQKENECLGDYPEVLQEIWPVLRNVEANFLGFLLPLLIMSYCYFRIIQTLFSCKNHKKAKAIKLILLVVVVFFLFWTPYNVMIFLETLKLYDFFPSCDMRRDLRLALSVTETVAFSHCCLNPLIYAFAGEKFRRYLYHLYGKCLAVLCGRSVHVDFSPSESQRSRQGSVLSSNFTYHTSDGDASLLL


Columns and labels:
human CX3CR1 [1] = target: T1, human CX3CR1; experiment: FACS binding on human CX3CR1 cells, anti-c-myc detection
Description: Initially, a FACS based binding setup was used to evaluate the cynomolgus cross reactivity. For this, the VHHs were incubated with the respective cells for 30 minutes at 4° C. followed by three wash steps and subsequently incubated with the detection reagents. As detection, a mouse anti-cmyc antibody (Serotec, MCA2200) followed by a goat anti-mouse antibody coupled to PE (Jackson 115-116-071) was used, each incubation for 30 minutes at 4° C., followed by three wash steps.

human CX3CR1 [2] = target: T1, human CX3CR1; experiment: competition FACS, BA/F3-huCX3CR1; competitor alexa647-labeled 66B02
Excerpt: A competitive binding experiment was setup in order to determine whether the VHHs bind overlapping epitopes on CX3CR1. For this, the VHH 66B02 labeled with alexa647 was used in a competition FACS on the BA/F3 cells expressing huCX3CR1. Representative VHHs from the three functional families were used as competitors for the binding of the labeled 66B02.

human CX3CR1 [3] = target: T1, human CX3CR1; experiment: A647-fractalkine competition FACS, CHO-huCX3CR1
Excerpt: (§1) Periplasmic extracts were screened in a human CX3CR1/human Fractalkine FACS competition assay to assess the blocking capacity of the expressed VHHs. Human CX3CR1 was presented on CHO cells overexpressing CX3CR1. Both a setup using cells harvested from an actively growing culture and a setup using frozen cells was used. As a detection reagent labeled fractalkine was used (R&D Systems, Minneapolis, Minn., USA) labeled with alexa647 (A647-Fractalkine) at a degree of labeling of 1. To setup the assay, first a titration series of the labeled fractalkine was performed on the CHO-huCX3CR1 cells in order to determine the EC50 value for binding. Initially screening was performed at a higher concentration of fractalkine (3 nM) to increase the assay robustness. To increase the sensitivity of the screening to a maximum, the EC30 concentration (1 nM) was chosen for subsequent screening. In brief 50 μl of periplasmic extract was added to 6 nM labeled fractalkine (50 μ;) and 200 000 CHO-huCX3CR1 cells. After one hour incubation at 4 C, cells were washed three times before read out was performed on a FACS Array (Becton Dickinson). First a gate was set on the intact cells as determined from the scatter profile. Next, dead cells were gated out by their fluorescence profile from the PI stain (Sigma, St Louis, US). The fluorescence profile from the alexa647 label was determined for each sample and used for calculation of blocking capacity. As controls, conditions were taken along where there was no VHH present in the peri extract or a known irrelevant VHH and samples were included where excess cold fractalkine was included. For each sample the percentage block was determined using the control samples to determine the assay window.
(§2) The blocking capacity towards the ligand fractalkine of the VHHs was evaluated in a human CX3CR1 competition FACS as outlined in Example 4. Either CHO-huCX3CR1 cells, BA/F3-huCX3CR1 cells or transiently transfected HEK293T cells were used. The amount of labeled ligand used in the different competition setups was also varied. The IC₅₀ values for VHHs blocking the interaction of human fractalkine to human CX3CR1 are depicted in Table 19.

human CX3CR1 [4] = target: T1, human CX3CR1; experiment: A647-fractalkine competition FACS, BA/F3-huCX3CR1
Excerpt: as §1, §2

human CX3CR1 [5] = target: T1, human CX3CR1; experiment: periplasmic extract, A647-fractalkine competition FACS, CHO-huCX3CR1
Excerpt: as §1

human CX3CR1 [6] = target: T1, human CX3CR1; experiment: cell-based or functional assay
human CX3CR1 [7] = target: T1, human CX3CR1; experiment: A647-fractalkine competition FACS, HEK293T human CX3CR1
Description: (§3) For later identified VHHs, a human Fractalkine competition FACS was set up using human or cynomolgus CX3CR1 expressed in HEK293T cells. Both the human and the cynomolgus receptor was transiently transfected in HEK293T cells and transfections were matched by the binding of the labeled ligand, human fractalkine. The competition was evaluated using the EC30 concentration of fractalkine and as such obtained IC50 values are a good estimate of the Ki value, a measure for affinity (Table 22). The experiment was performed as described in Example 4. The ratio of the IC50 values on cynomolgus monkey and human CX3CR1 was used to evaluate potential differences in affinity for CX3CR1 in both species.
(§4) Also for the bivalent constructs the cross reactivity towards cynomolgus CX3CR1 was evaluated and compared with the human reactivity. As described earlier, either a binding setup (Table 27) or a ligand competition setup (Table 28) were applied using transient transfected HEK293T cells. Batches of transient transfected cells were matched by their receptor expression level.

human CX3CR1 [8] = target: T1, human CX3CR1; experiment: A647-fractalkine competition FACS, HEK293-huCX3CR1
cynomolgus CX3CR1 [9] = target: T2, cynomolgus CX3CR1; experiment: A647-fractalkine competition FACS, HEK293T cynomolgus CX3CR1
Description: as §3, §4

human CX3CR1 [10] = target: T1, human CX3CR1; experiment: cell-based or functional assay; remark: listed apart in the source
cynomolgus CX3CR1 [11] = target: T2, cynomolgus CX3CR1; experiment: A647-fractalkine competition FACS, cynomolgus against human CX3CR1
Description: as §3, §4

EC50 (human CX3CR1 [1])	% block (human CX3CR1 [2])	IC50 (human CX3CR1 [2])	% block (human CX3CR1 [3])	IC50 (human CX3CR1 [3])	% block (human CX3CR1 [4])	IC50 (human CX3CR1 [4])	% block (human CX3CR1 [5])	% block, fractalkine induced chemotaxis (human CX3CR1 [6])	IC50, fractalkine induced chemotaxis (human CX3CR1 [6])	% block (human CX3CR1 [7])	IC50 (human CX3CR1 [7])	% block (human CX3CR1 [8])	IC50 (human CX3CR1 [8])	% block (cynomolgus CX3CR1 [9])	IC50 (cynomolgus CX3CR1 [9])	% block, fractalkine induced chemotaxis (human CX3CR1 [10])	IC50, fractalkine induced chemotaxis (human CX3CR1 [10])	ratio (cynomolgus/human IC50) (cynomolgus CX3CR1 [11])	Binder
800 pM	100%	4900 pM	100%	17000 pM	100%	8100 pM	99%	89%	200000 pM										CX3CR1BIIPMP11H11 (VHH, family 9; also called CX3CR1BII11H11; not shown: C-terminal c-myc and His6 tags) VHH: EVQLVESGGGLVQAGGSLRLSCVASGRTFSSYAMGWFRQAPGKERAFVAGISGSASRKYYADSVKGRFTVSRDNARNTVYLQMNSLKPEDTAVYYCAASNSYPKVQFDYYGQGTQVTVSS
										102%	190 pM	102%	190 pM	98%	690 pM	88%	2000 pM	3.67	CX3CR1BII016 (VHH, expressed in E. coli as described for the monovalent VHHs) EVQLVESGGGSVQAGESLRLSCAASGSIFSSNAMAWYRQAPGKQRDLVAVINSVGITKYADSVKGRFTISGDNAKNTVYLQMNSLKPEDTAVYYCTSDARRGWDTRYWGQGTQVTVSSGGGGSGGGGSGGGGSGGGGSGGGGSGGGGSGGGGSEVQLVESGGGSVQAGESLRLSCAASGSIFSSNAMAWYRQAPGKQRDLVAVINSVGITKYADSVKGRFTISGDNAKNTVYLQMNSLKPEDTAVYYCTSDARRGWDTRYWGQGTQVTVSS
										102%	30 pM	102%	300 pM	97%	100 pM	98%	600 pM	3.33	CX3CR1BII018 (VHH, A647 label where used as labeled competitor (Example 14), expressed in E. coli as described for the monovalent VHHs; also called A647-018; A647 labeled CX3CR1BII018) EVQLVESGGGSVQAGESLRLSCAASGSIFSSNAMAWYRQAPGKRRDLVAAINSVGVTKYADSVKGRFTISRDNAKNTVYLQMNSLKPEDTAVYYCTSDPRRGWDTRYWGQGTQVTVSSGGGGSGGGGSGGGGSGGGGSGGGGSGGGGSGGGGSEVQLVESGGGSVQAGESLRLSCAASGSIFSSNAMAWYRQAPGKRRDLVAAINSVGVTKYADSVKGRFTISRDNAKNTVYLQMNSLKPEDTAVYYCTSDPRRGWDTRYWGQGTQVTVSS
